The target in data set [1] is T1, eIF4A1 (human, UniProt P60842 1-406). Description: EMSA; silvestrol; multimerisation observed; 20 mM HEPES/KOH pH 7.5, 100 mM KCl, 1 mM TCEP, 1% DMSO, 2 mM AMPPNP/MgCl2, 25 C, 60 min; EMSA gels 6-7% acrylamide-TB, 0.5x TB. The following applies: protein: recombinant; tags: N-terminal 6xHis-SUMO, cleaved; label: FAM. For orientation: A gel shift assay detects complexes by their altered migration in electrophoresis.

In data set [2] the target is T1, eIF4A1. Description: EMSA; silvestrol, MgCl2, no ATP; fully bound with and without scavenger AG-RNA; 20 mM HEPES/KOH pH 7.5, 100 mM KCl, 1 mM TCEP, 1% DMSO, 2 mM AMPPNP/MgCl2, 25 C, 60 min; EMSA gels 6-7% acrylamide-TB, 0.5x TB. The following applies: protein: recombinant; tags: N-terminal 6xHis-SUMO, cleaved; label: EMSA: 5' Dy780 / 5' Dy680; FRET: 5' Cy3 / 5' Cy5; 5' overhang 20 nt.

Data set [3] concerns the target T1, eIF4A1. As to the kind of experiment: fluorescence anisotropy; 2 mM AMPPNP/MgCl2; affinity comparable to AG-RNA, Kd in figure only; 20 mM HEPES/KOH pH 7.5, 100 mM KCl, 1 mM TCEP, 1% DMSO, 2 mM AMPPNP/MgCl2, 25 C, 60 min; EMSA gels 6-7% acrylamide-TB, 0.5x TB. The following applies: protein: recombinant; tags: N-terminal 6xHis-SUMO, cleaved; label: FAM or 5' Dy780.

T1 sequence (P60842 whole entry): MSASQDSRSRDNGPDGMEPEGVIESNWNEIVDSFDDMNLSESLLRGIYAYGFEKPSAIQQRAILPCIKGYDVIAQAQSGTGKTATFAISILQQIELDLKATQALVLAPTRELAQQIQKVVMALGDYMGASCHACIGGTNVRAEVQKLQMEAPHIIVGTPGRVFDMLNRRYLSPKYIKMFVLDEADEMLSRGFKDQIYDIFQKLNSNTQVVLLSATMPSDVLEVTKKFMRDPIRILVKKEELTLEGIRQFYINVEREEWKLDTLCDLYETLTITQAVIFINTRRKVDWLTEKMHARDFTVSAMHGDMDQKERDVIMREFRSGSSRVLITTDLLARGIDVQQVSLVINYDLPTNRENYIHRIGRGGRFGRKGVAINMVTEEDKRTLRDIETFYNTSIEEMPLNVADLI

In the case of AGAGAGAGAG (ssRNA) [10 nt AG-RNA], the binding result in the data set with eIF4A1 [1] is “binds”.

B1: AG-overhang 24 bp substrate (EMSA/FRET loading + reporter) (dsRNA)
RNA 1: AGAGAGAGAGAGAGAGAGAGGAAAAAAUUAAAAAAUUAAAAAAC
RNA 2: GUUUUUUAAUUUUUUAAUUUUUUC
As to B1, the binding result with eIF4A1 [2] is recorded as “binds”. As for CAACAACAACAACAACAACA (ssRNA) [CAA-RNA (20 nt)], the binding result with eIF4A1 [3] is recorded as “binds”.

The values above are taken from PMC9976904, “eIF4A1-dependent mRNAs employ purine-rich 5’UTR sequences to activate localised eIF4A1-unwinding through eIF4A1-multimerisation to facilitate translation”.
